{"source": "the supplement of paper PMC9112550", "about": "“Optimization of the antimicrobial peptide Bac7 by deep mutational scanning” (BMC Biology, 2022);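 note: peptides expressed intracellularly from a pBAD plasmid library in pooled LB shake-flask culture, induced with 0.3% L-arabinose, DNA abundance read by NGS, three biological replicates, DESeq2 with apeglm shrinkage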", "test_system": "Escherichia coli TOP10", "assay": "shrunken log2 fold change of peptide-encoding DNA abundance (4.5 h post-induction vs induction); higher = less antimicrobial activity (less host growth inhibition)", "conditions": "time post-induction: 4.5 h; library: site-saturation at positions 5, 18, 19, 20"}
{"sequence": "RRIRWRPPRLPRPRPRPTNKPRP", "values": [{"measurement": "shrunken log2 fold change", "result": -0.195}]}
{"sequence": "RRIRARPPRLPRPRPRPQATPRP", "values": [{"measurement": "shrunken log2 fold change", "result": 0.389}]}
{"sequence": "RRIRLRPPRLPRPRPRPRQQPRP", "values": [{"measurement": "shrunken log2 fold change", "result": 0.319}]}
{"sequence": "RRIRVRPPRLPRPRPRPMNMPRP", "values": [{"measurement": "shrunken log2 fold change", "result": -0.426}]}
{"sequence": "RRIRERPPRLPRPRPRPRPTPRP", "values": [{"measurement": "shrunken log2 fold change", "result": 0.35}]}
{"sequence": "RRIRLRPPRLPRPRPRPDGQPRP", "values": [{"measurement": "shrunken log2 fold change", "result": 0.00145}]}
{"sequence": "RRIRMRPPRLPRPRPRPWPYPRP", "values": [{"measurement": "shrunken log2 fold change", "result": 0.213}]}
{"sequence": "RRIRVRPPRLPRPRPRPCGFPRP", "values": [{"measurement": "shrunken log2 fold change", "result": 0.624}]}
{"sequence": "RRIRVRPPRLPRPRPRPQNFPRP", "values": [{"measurement": "shrunken log2 fold change", "result": -0.0453}]}
{"sequence": "RRIRERPPRLPRPRPRPVANPRP", "values": [{"measurement": "shrunken log2 fold change", "result": -0.068}]}
{"sequence": "RRIRIRPPRLPRPRPRPCWFPRP", "values": [{"measurement": "shrunken log2 fold change", "result": -0.165}]}
{"sequence": "RRIRERPPRLPRPRPRPEVNPRP", "values": [{"measurement": "shrunken log2 fold change", "result": -0.0365}]}
{"sequence": "RRIRNRPPRLPRPRPRPINDPRP", "values": [{"measurement": "shrunken log2 fold change", "result": 0.0259}]}
{"sequence": "RRIRRRPPRLPRPRPRPQPEPRP", "values": [{"measurement": "shrunken log2 fold change", "result": 0.0541}]}
{"sequence": "RRIRIRPPRLPRPRPRPQNTPRP", "values": [{"measurement": "shrunken log2 fold change", "result": -0.86}]}
{"sequence": "RRIRYRPPRLPRPRPRPQVMPRP", "values": [{"measurement": "shrunken log2 fold change", "result": -0.0105}]}
{"sequence": "RRIRDRPPRLPRPRPRPIPIPRP", "values": [{"measurement": "shrunken log2 fold change", "result": -0.0457}]}
{"sequence": "RRIRTRPPRLPRPRPRPDVKPRP", "values": [{"measurement": "shrunken log2 fold change", "result": -0.521}]}
{"sequence": "RRIRWRPPRLPRPRPRPTQRPRP", "values": [{"measurement": "shrunken log2 fold change", "result": 0.133}]}
{"sequence": "RRIRERPPRLPRPRPRPFCSPRP", "values": [{"measurement": "shrunken log2 fold change", "result": -0.204}]}
{"sequence": "RRIRWRPPRLPRPRPRPDVYPRP", "values": [{"measurement": "shrunken log2 fold change", "result": 0.00123}]}
{"sequence": "RRIRGRPPRLPRPRPRPHMLPRP", "values": [{"measurement": "shrunken log2 fold change", "result": 0.142}]}
{"sequence": "RRIRDRPPRLPRPRPRPFVQPRP", "values": [{"measurement": "shrunken log2 fold change", "result": -0.194}]}
{"sequence": "RRIRNRPPRLPRPRPRPSPRPRP", "values": [{"measurement": "shrunken log2 fold change", "result": 0.0772}]}
{"sequence": "RRIRQRPPRLPRPRPRPIRTPRP", "values": [{"measurement": "shrunken log2 fold change", "result": -0.0597}]}
{"sequence": "RRIRARPPRLPRPRPRPQLAPRP", "values": [{"measurement": "shrunken log2 fold change", "result": 0.766}]}
{"sequence": "RRIRKRPPRLPRPRPRPVWRPRP", "values": [{"measurement": "shrunken log2 fold change", "result": 0.0611}]}
{"sequence": "RRIRERPPRLPRPRPRPTGEPRP", "values": [{"measurement": "shrunken log2 fold change", "result": -0.0152}]}
{"sequence": "RRIRMRPPRLPRPRPRPARMPRP", "values": [{"measurement": "shrunken log2 fold change", "result": 0.888}]}
{"sequence": "RRIRNRPPRLPRPRPRPTWYPRP", "values": [{"measurement": "shrunken log2 fold change", "result": 0.0037}]}
{"sequence": "RRIRWRPPRLPRPRPRPMAPPRP", "values": [{"measurement": "shrunken log2 fold change", "result": 0.0741}]}
{"sequence": "RRIRRRPPRLPRPRPRPVEYPRP", "values": [{"measurement": "shrunken log2 fold change", "result": -0.00275}]}
{"sequence": "RRIRQRPPRLPRPRPRPTMNPRP", "values": [{"measurement": "shrunken log2 fold change", "result": -0.298}]}
{"sequence": "RRIRWRPPRLPRPRPRPKTVPRP", "values": [{"measurement": "shrunken log2 fold change", "result": 0.227}]}
{"sequence": "RRIRYRPPRLPRPRPRPMYAPRP", "values": [{"measurement": "shrunken log2 fold change", "result": -0.0214}]}
{"sequence": "RRIRRRPPRLPRPRPRPTRAPRP", "values": [{"measurement": "shrunken log2 fold change", "result": 0.738}]}
{"sequence": "RRIRKRPPRLPRPRPRPVVMPRP", "values": [{"measurement": "shrunken log2 fold change", "result": 3.16}]}
{"sequence": "RRIRLRPPRLPRPRPRPETDPRP", "values": [{"measurement": "shrunken log2 fold change", "result": 0.0033}]}
{"sequence": "RRIRVRPPRLPRPRPRPWLTPRP", "values": [{"measurement": "shrunken log2 fold change", "result": -0.147}]}
{"sequence": "RRIRMRPPRLPRPRPRPDNFPRP", "values": [{"measurement": "shrunken log2 fold change", "result": -0.184}]}
{"sequence": "RRIRARPPRLPRPRPRPWKHPRP", "values": [{"measurement": "shrunken log2 fold change", "result": -0.0402}]}
{"sequence": "RRIRLRPPRLPRPRPRPAAKPRP", "values": [{"measurement": "shrunken log2 fold change", "result": 0.602}]}
{"sequence": "RRIRARPPRLPRPRPRPINVPRP", "values": [{"measurement": "shrunken log2 fold change", "result": -0.0118}]}
{"sequence": "RRIRWRPPRLPRPRPRPQGHPRP", "values": [{"measurement": "shrunken log2 fold change", "result": 0.0837}]}
{"sequence": "RRIRFRPPRLPRPRPRPWCPPRP", "values": [{"measurement": "shrunken log2 fold change", "result": -0.155}]}
{"sequence": "RRIRHRPPRLPRPRPRPNINPRP", "values": [{"measurement": "shrunken log2 fold change", "result": -1.31}]}
{"sequence": "RRIRARPPRLPRPRPRPNMRPRP", "values": [{"measurement": "shrunken log2 fold change", "result": 0.25}]}
{"sequence": "RRIRDRPPRLPRPRPRPVWTPRP", "values": [{"measurement": "shrunken log2 fold change", "result": 0.0494}]}
{"sequence": "RRIRSRPPRLPRPRPRPTIMPRP", "values": [{"measurement": "shrunken log2 fold change", "result": -0.508}]}
{"sequence": "RRIRGRPPRLPRPRPRPFGGPRP", "values": [{"measurement": "shrunken log2 fold change", "result": 0.401}]}
